Laboratory results: PMC12990809

Legend:
Experiment in all cases: pulldown
Conditions in all cases: 20 nM protein, 1.5 uM RNA pool; 20 mM HEPES pH 7.8, 70 mM KCl, 10 mM NaCl, 10% glycerol, 2 mM DTT, 0.1 ug/uL BSA; 30 min, 4 C
[1] = target: T1, NCU00556 (Neurospora crassa) (UniProt Q7SF93)
T1 sequence: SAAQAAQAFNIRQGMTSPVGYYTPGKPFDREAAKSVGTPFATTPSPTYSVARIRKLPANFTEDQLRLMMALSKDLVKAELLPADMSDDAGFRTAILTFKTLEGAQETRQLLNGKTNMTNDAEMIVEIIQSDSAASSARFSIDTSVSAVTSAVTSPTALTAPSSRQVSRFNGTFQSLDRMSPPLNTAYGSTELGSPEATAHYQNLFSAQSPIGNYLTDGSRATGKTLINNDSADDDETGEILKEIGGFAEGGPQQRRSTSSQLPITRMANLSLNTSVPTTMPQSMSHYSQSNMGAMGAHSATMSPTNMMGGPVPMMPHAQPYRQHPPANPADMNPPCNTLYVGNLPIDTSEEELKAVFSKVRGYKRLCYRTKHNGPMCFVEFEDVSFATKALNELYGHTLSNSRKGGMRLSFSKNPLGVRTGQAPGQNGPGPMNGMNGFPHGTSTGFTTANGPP

[2] = target: T2, TBPH (Drosophila melanogaster) (UniProt E1JGV0)
T2 sequence: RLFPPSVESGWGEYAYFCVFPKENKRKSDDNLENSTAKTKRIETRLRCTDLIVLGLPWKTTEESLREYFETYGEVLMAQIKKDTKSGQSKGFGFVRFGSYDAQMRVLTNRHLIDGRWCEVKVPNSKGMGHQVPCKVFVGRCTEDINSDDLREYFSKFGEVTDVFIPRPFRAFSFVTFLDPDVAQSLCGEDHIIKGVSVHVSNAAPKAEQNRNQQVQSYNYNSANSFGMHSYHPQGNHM

[3] = target: RBPMS2 (Monodelphis domestica) (UniProt A0A5F8GJ20)
[4] = target: T3, sart3 (Tetraodon nigroviridis) (UniProt H3DEK9)
T3 sequence: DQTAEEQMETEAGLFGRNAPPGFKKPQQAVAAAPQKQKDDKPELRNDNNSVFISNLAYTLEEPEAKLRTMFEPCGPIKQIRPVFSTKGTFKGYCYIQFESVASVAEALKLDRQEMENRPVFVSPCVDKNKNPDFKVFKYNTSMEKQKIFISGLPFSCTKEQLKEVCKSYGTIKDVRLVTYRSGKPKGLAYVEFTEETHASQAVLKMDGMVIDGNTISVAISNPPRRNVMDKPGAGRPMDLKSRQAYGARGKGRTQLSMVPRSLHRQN

[5] = target: T4, LmjF.24.1570 (Leishmania major) (UniProt Q4QAH4)
T4 sequence: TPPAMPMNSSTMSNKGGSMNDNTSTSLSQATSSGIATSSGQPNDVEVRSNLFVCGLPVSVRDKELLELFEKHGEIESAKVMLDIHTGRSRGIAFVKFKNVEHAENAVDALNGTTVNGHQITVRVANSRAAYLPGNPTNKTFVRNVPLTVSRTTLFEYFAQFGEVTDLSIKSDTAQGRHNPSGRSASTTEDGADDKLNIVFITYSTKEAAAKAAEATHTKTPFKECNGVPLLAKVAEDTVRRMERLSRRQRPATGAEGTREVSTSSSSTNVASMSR

[6] = target: T5, Tb11.01.5690 S174N (Trypanosoma brucei) (UniProt Q382C7)
T5 sequence: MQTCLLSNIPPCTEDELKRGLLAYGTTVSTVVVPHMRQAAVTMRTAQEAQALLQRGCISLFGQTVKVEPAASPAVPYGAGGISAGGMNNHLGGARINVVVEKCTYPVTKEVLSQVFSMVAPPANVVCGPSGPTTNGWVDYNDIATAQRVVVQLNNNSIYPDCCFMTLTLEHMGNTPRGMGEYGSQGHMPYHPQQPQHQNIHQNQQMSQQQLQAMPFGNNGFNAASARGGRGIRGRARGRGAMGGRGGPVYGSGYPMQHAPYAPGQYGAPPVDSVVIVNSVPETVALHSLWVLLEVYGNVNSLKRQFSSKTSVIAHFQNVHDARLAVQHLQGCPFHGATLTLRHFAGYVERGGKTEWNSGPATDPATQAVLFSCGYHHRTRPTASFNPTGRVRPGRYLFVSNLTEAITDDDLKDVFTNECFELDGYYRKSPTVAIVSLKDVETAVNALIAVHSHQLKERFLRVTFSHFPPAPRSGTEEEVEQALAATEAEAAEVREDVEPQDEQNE

[7] = target: T6, PK07890.1 (Cannabis sativa) (UniProt A0A7J6I7X4)
T6 sequence: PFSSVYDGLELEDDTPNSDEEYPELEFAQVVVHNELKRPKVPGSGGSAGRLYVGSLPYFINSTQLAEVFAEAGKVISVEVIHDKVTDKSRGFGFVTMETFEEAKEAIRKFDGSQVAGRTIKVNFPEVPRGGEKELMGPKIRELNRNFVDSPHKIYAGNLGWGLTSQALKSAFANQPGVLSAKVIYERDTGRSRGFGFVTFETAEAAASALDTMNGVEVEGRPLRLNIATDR

[8] = target: T7, CG4806 (Drosophila melanogaster) (UniProt Q3ZAN6)
T7 sequence: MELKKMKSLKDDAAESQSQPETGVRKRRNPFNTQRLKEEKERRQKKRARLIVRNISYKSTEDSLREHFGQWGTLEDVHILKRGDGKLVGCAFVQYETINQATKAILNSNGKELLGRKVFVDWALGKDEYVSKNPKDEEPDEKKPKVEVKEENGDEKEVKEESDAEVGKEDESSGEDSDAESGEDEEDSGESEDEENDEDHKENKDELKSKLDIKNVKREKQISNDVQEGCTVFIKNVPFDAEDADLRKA

[9] = target: T8, PK00353.1 del132-144;P293S (Cannabis sativa) (UniProt A0A7J6GFS8)
T8 sequence: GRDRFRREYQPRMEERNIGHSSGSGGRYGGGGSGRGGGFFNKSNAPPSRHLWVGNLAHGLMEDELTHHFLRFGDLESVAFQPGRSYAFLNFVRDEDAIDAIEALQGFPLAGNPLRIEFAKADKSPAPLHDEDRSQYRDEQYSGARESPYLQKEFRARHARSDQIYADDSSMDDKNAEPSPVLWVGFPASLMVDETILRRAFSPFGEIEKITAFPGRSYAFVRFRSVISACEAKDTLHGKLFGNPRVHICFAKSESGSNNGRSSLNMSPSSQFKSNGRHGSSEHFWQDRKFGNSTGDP

Sequence of RBPMS2 (Monodelphis domestica) (A0A5F8GJ20 entry or part of it): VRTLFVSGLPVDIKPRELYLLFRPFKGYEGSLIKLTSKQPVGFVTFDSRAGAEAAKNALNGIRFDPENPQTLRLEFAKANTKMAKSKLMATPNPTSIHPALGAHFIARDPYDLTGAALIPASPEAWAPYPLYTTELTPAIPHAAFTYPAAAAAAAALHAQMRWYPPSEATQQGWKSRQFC

Q: Which binding signal (z-score (mean of top ten 7-mers)) [1] does the source give for UUGCAU [RNAcompete motif RNCMPT00754] here?
A: 14.3

Q: GANUGA [RNAcompete motif RNCMPT00776] was tested. Which binding signal (z-score (mean of top ten 7-mers)) [2] did it give?
A: 9.14

Q: With ANCACG [RNAcompete motif RNCMPT00757] as the substance, how does the binding signal (z-score (mean of top ten 7-mers)) [3] read?
A: 8.74

Q: How did the binding signal (z-score (mean of top ten 7-mers)) [4] turn out when AGAGAAG [RNAcompete motif RNCMPT00774] was run?
A: 11.5

Q: Which binding signal (z-score (mean of top ten 7-mers)) [5] does the source give for UAUACU [RNAcompete motif RNCMPT00761] here?
A: 22.5

Q: Which binding signal (z-score (mean of top ten 7-mers)) [6] does the source give for GAAAGAAA [RNAcompete motif RNCMPT00773] here?
A: 9.18

Q: For GAUACU [RNAcompete motif RNCMPT00790], which binding signal (z-score (mean of top ten 7-mers)) [7] is on record?
A: 15.3

Q: How did the binding signal (z-score (mean of top ten 7-mers)) [8] turn out when CUGUAGUA [RNAcompete motif RNCMPT00784] was run?
A: 7.2

Q: With CAAAGCA [RNAcompete motif RNCMPT00789] as the substance, how does the binding signal (z-score (mean of top ten 7-mers)) [9] read?
A: 7.23
